From article PMC4981022
Like-named read-outs stand apart in the source and are kept apart here.

Tests used:
[1] = molecular target: endogenous TRAPPC6A (TPC6A), human cells (human (endogenous in HEK293, BCC, SK-N-SH and other human cell lines)) (UniProt O75865); experiment: western blotting (size of the bands); cytosol and nuclei of BCC cells, with or without UV irradiation; mitochondria of Jurkat T cells treated with PMA for 90 min
[2] = molecular target: endogenous TRAPPC6A (TPC6A), human cells (human (endogenous in HEK293, BCC, SK-N-SH and other human cell lines)) (UniProt O75865); experiment: as above; remark: listed apart in the source

- stoichiometry N [1]: 3
- stoichiometry N [2]: 2
Substance: endogenous TRAPPC6A (TPC6A), human cells (from UniProt O75865 1-159) (natural protein)
